{
  "source": "patent US20110123544A1",
  "about": "(published 2011)",
  "binders": {"B1": {"name": "Y61 H95 E (peptide)", "chain": "EGSHDN"}, "B2": {"name": "Y61 H98 R (peptide)", "chain": "HGSRDN"}, "B3": {"name": "Y61 H97 A (peptide)", "chain": "HGAHDN"}, "B4": {"name": "Y61 H97 D (peptide)", "chain": "HGDHDN"}, "B5": {"name": "Y61 H96 P (peptide)", "chain": "HPSHDN"}, "B6": {"name": "Y61 H97 G (peptide)", "chain": "HGGHDN"}, "B7": {"name": "Y61 H95 Q (peptide)", "chain": "QGSHDN"}, "B8": {"name": "Y61 H98 T (peptide)", "chain": "HGSTDN"}, "B9": {"name": "Y61 H98 A (peptide)", "chain": "HGSADN"}, "B10": {"name": "Y61 H97 Y (peptide)", "chain": "HGYHDN"}, "B11": {"name": "Y61 H97 P (peptide)", "chain": "HGPHDN"}, "B12": {"name": "Y61 H95 A (peptide)", "chain": "AGSHDN"}, "B13": {"name": "Y61 H96 L (peptide)", "chain": "HLSHDN"}, "B14": {"name": "Y61 H96 I (peptide)", "chain": "HISHDN"}, "B15": {"name": "Y61 H98 L (peptide)", "chain": "HGSLDN"}, "B16": {"name": "Y61 H95 T (peptide)", "chain": "TGSHDN"}, "B17": {"name": "Y61 H97 T (peptide)", "chain": "HGTHDN"}, "B18": {"name": "Y61 H95 P (peptide)", "chain": "PGSHDN"}, "B19": {"name": "Y61 H98 I (peptide)", "chain": "HGSIDN"}, "B20": {"name": "Y61 H97 I (peptide)", "chain": "HGIHDN"}, "B21": {"name": "Y61 H96 V (peptide)", "chain": "HVSHDN"}, "B22": {"name": "Y61 H97 R (peptide)", "chain": "HGRHDN"}, "B23": {"name": "Y61 H98 V (peptide)", "chain": "HGSVDN"}, "B24": {"name": "Y61 H97 N (peptide)", "chain": "HGNHDN"}, "B25": {"name": "Y61 H96 M (peptide)", "chain": "HMSHDN"}, "B26": {"name": "Y61 H97 F (peptide)", "chain": "HGFHDN"}, "B27": {"name": "Y61 H101 H (peptide)", "chain": "HGSHHN"}, "B28": {"name": "Y61 H96 T (peptide)", "chain": "HTSHDN"}, "B29": {"name": "Y61 H97 W (peptide)", "chain": "HGWHDN"}, "B30": {"name": "Y61 H96 R (peptide)", "chain": "HRSHDN"}, "B31": {"name": "Y61 H95 S (peptide)", "chain": "SGSHDN"}, "B32": {"name": "Y61 H96 H (peptide)", "chain": "HHSHDN"}, "B33": {"name": "Y61 H101 R (peptide)", "chain": "HGSHRN"}, "B34": {"name": "Y61 H95 L (peptide)", "chain": "LGSHDN"}, "B35": {"name": "Y61 H96 W (peptide)", "chain": "HWSHDN"}, "B36": {"name": "Y61 H95 K (peptide)", "chain": "KGSHDN"}, "B37": {"name": "Y61 H101 S (peptide)", "chain": "HGSHSN"}, "B38": {"name": "Y61 H101 Y (peptide)", "chain": "HGSHYN"}, "B39": {"name": "Y61 H98 F (peptide)", "chain": "HGSFDN"}, "B40": {"name": "Y61 H95 F (peptide)", "chain": "FGSHDN"}, "B41": {"name": "Y61 H96 D (peptide)", "chain": "HDSHDN"}, "B42": {"name": "Y61 H96 C (peptide)", "chain": "HCSHDN"}, "B43": {"name": "Y61 H97 H (peptide)", "chain": "HGHHDN"}, "B44": {"name": "Y61 H31 C (peptide)", "chain": "FTFSCYGMH"}, "B45": {"name": "Y61 H31 H (peptide)", "chain": "FTFSHYGMH"}, "B46": {"name": "Y61 H32 E (peptide)", "chain": "FTFSSEGMH"}, "B47": {"name": "Y61 H31 E (peptide)", "chain": "FTFSEYGMH"}, "B48": {"name": "Y61 H33 I (peptide)", "chain": "FTFSSYIMH"}, "B49": {"name": "Y61 H31 T (peptide)", "chain": "FTFSTYGMH"}, "B50": {"name": "Y61 H33 V (peptide)", "chain": "FTFSSYVMH"}, "B51": {"name": "Y61 H32 S (peptide)", "chain": "FTFSSSGMH"}, "B52": {"name": "Y61 H31 A (peptide)", "chain": "FTFSAYGMH"}, "B53": {"name": "Y61 H33 C (peptide)", "chain": "FTFSSYCMH"}, "B54": {"name": "Y61 H33 Y (peptide)", "chain": "FTFSSYYMH"}, "B55": {"name": "Y61 H30 N (peptide)", "chain": "FTFNSYGMH"}, "B56": {"name": "Y61 H33 E (peptide)", "chain": "FTFSSYEMH"}, "B57": {"name": "Y61 H31 Q (peptide)", "chain": "FTFSQYGMH"}, "B58": {"name": "Y61 H33 M (peptide)", "chain": "FTFSSYMMH"}, "B59": {"name": "Y61 H30 E (peptide)", "chain": "FTFESYGMH"}, "B60": {"name": "Y61 H32 A (peptide)", "chain": "FTFSSAGMH"}, "B61": {"name": "Y61 H31 R (peptide)", "chain": "FTFSRYGMH"}, "B62": {"name": "Y61 H32 V (peptide)", "chain": "FTFSSVGMH"}, "B63": {"name": "Y61 L92 L (peptide)", "chain": "QSYLRGTHPALL"}, "B64": {"name": "Y61 L94 C (peptide)", "chain": "QSYDRCTHPALL"}, "B65": {"name": "Y61 L94 H (peptide)", "chain": "QSYDRHTHPALL"}, "B66": {"name": "Y61 L92 F (peptide)", "chain": "QSYFRGTHPALL"}, "B67": {"name": "Y61 L92 T (peptide)", "chain": "QSYTRGTHPALL"}, "B68": {"name": "Y61 L93 P (peptide)", "chain": "QSYDPGTHPALL"}, "B69": {"name": "Y61 L93 W (peptide)", "chain": "QSYDWGTHPALL"}, "B70": {"name": "Y61 L93 L (peptide)", "chain": "QSYDLGTHPALL"}, "B71": {"name": "Y61 L94 A (peptide)", "chain": "QSYDRATHPALL"}, "B72": {"name": "Y61 L93 T (peptide)", "chain": "QSYDTGTHPALL"}},
  "data": [
    {"target": "T1, recombinant human interleukin 12 (p40/p35 heterodimer) (human, UniProt P29460 23-328; P29459 23-219)", "T1 chain 1": "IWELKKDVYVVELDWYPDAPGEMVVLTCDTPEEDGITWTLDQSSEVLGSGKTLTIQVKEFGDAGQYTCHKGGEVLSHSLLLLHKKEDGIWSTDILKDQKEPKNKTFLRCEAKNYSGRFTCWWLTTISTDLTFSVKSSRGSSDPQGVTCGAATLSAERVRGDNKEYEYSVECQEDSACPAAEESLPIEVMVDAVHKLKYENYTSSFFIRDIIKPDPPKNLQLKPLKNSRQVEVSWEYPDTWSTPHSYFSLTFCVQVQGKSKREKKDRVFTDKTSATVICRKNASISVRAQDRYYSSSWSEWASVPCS", "T1 chain 2": "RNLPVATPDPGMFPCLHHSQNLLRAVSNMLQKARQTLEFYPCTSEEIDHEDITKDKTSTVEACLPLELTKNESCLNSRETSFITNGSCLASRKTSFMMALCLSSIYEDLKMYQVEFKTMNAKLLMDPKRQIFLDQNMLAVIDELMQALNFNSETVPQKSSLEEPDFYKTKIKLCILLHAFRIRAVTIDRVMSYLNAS", "experiment": "BIAcore", "units": {"koff": "s⁻¹"}, "values": [
      {"binder": "B1", "koff": 0.00231},
      {"binder": "B2", "koff": 0.00034},
      {"binder": "B3", "koff": 0.00143},
      {"binder": "B4", "koff": 0.00202},
      {"binder": "B5", "koff": 0.00129},
      {"binder": "B6", "koff": 0.00229},
      {"binder": "B7", "koff": 0.000859},
      {"binder": "B8", "koff": 0.000227},
      {"binder": "B9", "koff": 0.000673},
      {"binder": "B10", "koff": 0.00273},
      {"binder": "B11", "koff": 0.003},
      {"binder": "B12", "koff": 0.0015},
      {"binder": "B13", "koff": 0.00261},
      {"binder": "B14", "koff": 0.00208},
      {"binder": "B15", "koff": 0.000598},
      {"binder": "B16", "koff": 0.00202},
      {"binder": "B17", "koff": 0.000588},
      {"binder": "B18", "koff": 0.00471},
      {"binder": "B19", "koff": 0.000343},
      {"binder": "B20", "koff": 0.00208},
      {"binder": "B21", "koff": 0.000382},
      {"binder": "B22", "koff": 0.00224},
      {"binder": "B23", "koff": 0.000293},
      {"binder": "B24", "koff": 0.00221},
      {"binder": "B25", "koff": 0.00204},
      {"binder": "B26", "koff": 0.0018},
      {"binder": "B27", "koff": 0.00327},
      {"binder": "B28", "koff": 0.00186},
      {"binder": "B29", "koff": 0.00239},
      {"binder": "B30", "koff": 0.000962},
      {"binder": "B31", "koff": 0.00193},
      {"binder": "B32", "koff": 0.000237},
      {"binder": "B33", "koff": 0.0011},
      {"binder": "B34", "koff": 0.00147},
      {"binder": "B35", "koff": 0.00197},
      {"binder": "B36", "koff": 0.00228},
      {"binder": "B37", "koff": 0.000449},
      {"binder": "B38", "koff": 0.00465},
      {"binder": "B39", "koff": 0.000688},
      {"binder": "B40", "koff": 0.00514},
      {"binder": "B41", "koff": 0.00224},
      {"binder": "B42", "koff": 0.000242},
      {"binder": "B43", "koff": 0.00191}
    ]},
    {"target": "T1, recombinant human interleukin 12 …", "experiment": "BIAcore", "remark": "another data set of the same source", "units": {"koff": "s⁻¹"}, "values": [
      {"binder": "B44", "koff": 0.00012},
      {"binder": "B45", "koff": 0.000309},
      {"binder": "B46", "koff": 0.00229},
      {"binder": "B47", "koff": 0.000219},
      {"binder": "B48", "koff": 0.0025},
      {"binder": "B49", "koff": 0.000716},
      {"binder": "B50", "koff": 0.00191},
      {"binder": "B51", "koff": 0.00158},
      {"binder": "B52", "koff": 0.000205},
      {"binder": "B53", "koff": 0.00286},
      {"binder": "B54", "koff": 0.0025},
      {"binder": "B55", "koff": 0.000301},
      {"binder": "B56", "koff": 0.00189},
      {"binder": "B57", "koff": 0.000152},
      {"binder": "B58", "koff": 0.000215},
      {"binder": "B59", "koff": 0.000228},
      {"binder": "B60", "koff": 0.00166},
      {"binder": "B61", "koff": 0.000664},
      {"binder": "B62", "koff": 0.00134}
    ]},
    {"target": "T2, recombinant human IL-12 (rhIL-12) (human, UniProt P29459 23-219; P29460 23-328)", "T2 chain 1": "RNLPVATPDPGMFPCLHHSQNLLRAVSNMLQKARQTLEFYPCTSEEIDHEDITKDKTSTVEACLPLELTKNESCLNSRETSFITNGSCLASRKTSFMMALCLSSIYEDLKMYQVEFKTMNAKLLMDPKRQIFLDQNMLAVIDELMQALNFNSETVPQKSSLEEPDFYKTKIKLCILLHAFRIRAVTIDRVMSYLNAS", "T2 chain 2": "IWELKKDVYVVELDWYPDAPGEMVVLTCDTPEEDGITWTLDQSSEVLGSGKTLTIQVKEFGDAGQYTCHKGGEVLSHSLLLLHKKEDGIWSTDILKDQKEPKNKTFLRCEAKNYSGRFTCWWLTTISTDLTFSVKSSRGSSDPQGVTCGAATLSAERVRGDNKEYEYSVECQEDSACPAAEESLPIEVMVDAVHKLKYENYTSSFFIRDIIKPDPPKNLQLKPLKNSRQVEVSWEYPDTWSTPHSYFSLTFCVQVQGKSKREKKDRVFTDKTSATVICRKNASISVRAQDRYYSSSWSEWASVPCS", "experiment": "BIAcore", "units": {"koff": "s⁻¹"}, "values": [
      {"binder": "B63", "koff": 0.000728},
      {"binder": "B64", "koff": 0.00052},
      {"binder": "B65", "koff": 0.000187},
      {"binder": "B66", "koff": 0.000449},
      {"binder": "B67", "koff": 0.000408},
      {"binder": "B68", "koff": 0.000349},
      {"binder": "B69", "koff": 0.000349},
      {"binder": "B70", "koff": 0.0003},
      {"binder": "B71", "koff": 0.000526},
      {"binder": "B72", "koff": 0.000316}
    ]}
  ]
}
